From publication PMC10783015 come the findings set out here.

For series [1], the target named is T1, CRP (Salmonella enterica serovar Typhimurium ATCC 14028) (UniProt P0A2T6).
T1 sequence: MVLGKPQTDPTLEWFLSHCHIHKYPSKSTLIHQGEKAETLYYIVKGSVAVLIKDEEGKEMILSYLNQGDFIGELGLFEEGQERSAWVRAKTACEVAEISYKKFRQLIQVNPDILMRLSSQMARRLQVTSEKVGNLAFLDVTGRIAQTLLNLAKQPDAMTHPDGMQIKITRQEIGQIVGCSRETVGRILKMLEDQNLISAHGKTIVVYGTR
The experiment in a line: SPR. To be noted: EMSA: 100 ng DNA in 1x TBE, 20 uL, 45 min at room temperature, 12% native PAGE, PargS competitor, 20 uM cAMP for CRP; SPR: streptavidin chip with biotinylated ….

Series [2] deals with T2, H-NS (Salmonella enterica serovar Typhimurium ATCC 14028) (UniProt P0A1S2).
T2 sequence: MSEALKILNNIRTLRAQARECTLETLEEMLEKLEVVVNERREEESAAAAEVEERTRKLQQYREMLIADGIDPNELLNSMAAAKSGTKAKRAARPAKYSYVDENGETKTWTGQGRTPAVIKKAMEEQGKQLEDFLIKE
The experiment in a line: SPR. To be noted: EMSA: 100 ng DNA in 1x TBE, 20 uL, 45 min at room temperature, 12% native PAGE, PargS competitor, 20 uM cAMP for CRP; SPR: streptavidin chip with biotinylated ….

The Kd is the free concentration of one partner at which half of the binding sites on the other are occupied at equilibrium, for simple one-to-one binding. In the case of “AAGAGCCTGAATATTCACCGGAATACCTTACGTTTATGAAGCGGGCTGTATTGCCCGCGCCAGTTTAAGAATTAGGGCGGGAGTATACTGCAAATGCCCGTTGGCGTCAGCATTGCGCGCGCGGCGCGTCGCCTGAAATATACGCAACAATAATCTGCATAAGCATTCAATAAACGCCCAATCAAATCAAAGGTTG (double strand) [PargS SPR]”, the equilibrium dissociation constant (Kd) in series [1] was determined as 1 nM. Besides, the binding result in series [2] is given as “no binding”.
In the case of “CTTATGTCGGTCATTGCCGTAGCGCTGCCGACGATCTTATAGCTATTGAGAACTCTCGTTTCACAACCTATGTTTTAATTTCAAAACGATCAATAATGAAACTTATGTTTTGTTATGGGTATCACATTTCGAATTTCATAATCCTGGCGTTTTTTATCGTT (double strand) [PiolT1 SPR]”, the binding entry in series [1] is “no binding”.
